Results as given in patent US20210380703A1 (RIGEL PHARMACEUTICALS, published 2021).

Experiments:
[1] = target: T1, biotinylated goat anti-human kappa light chain; assay: ELISA, positive control
T1 construct: positive control of the ELISA
Outline: (§1)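 Binding signal was read by ELISA after ACVR2A-specific monoclonal antibodies were tested against human ACVR2A and mouse ACVR2A, with human Fc as the negative control.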

mouse ACVR2A = mouse ACVR2A (mouse, UniProt P27038 20-135, limits assumed); assay: ELISA
Outline: as §1

human ACVR2A = target: T2, human ACVR2A (human, UniProt P27037 20-135, limits assumed); assay: ELISA
T2 construct: also called activin receptor, type II A
Outline: as §1
Further: test concentration or dose not given here.

T2 sequence (P27037 20-135 limits assumed): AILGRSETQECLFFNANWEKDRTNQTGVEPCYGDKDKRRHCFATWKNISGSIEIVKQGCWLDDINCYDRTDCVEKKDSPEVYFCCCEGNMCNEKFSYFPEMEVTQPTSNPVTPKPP
mouse ACVR2A, sequence (P27038 20-135 limits assumed): as the sequence (P27037 20-135 limits assumed) above, with K20R, V73I counted along it

Row | optical density [1] [OD] | optical density (mouse ACVR2A) [OD] | optical density (human ACVR2A) [OD] | Binder
1 | 3.47 | 3.71 | 3.81 | 376_D08 (antibody, V domains shown, Group II) VH: EVQLLESGGGLVQPGGSLRLSCAASGFTFDSYGMNWVRQAPGKGLEWVANINYNSGYKSYADSVKGRFTISRDNSKNTLYLQMNSLRAEDTAVYYCARAATWHDTALDYWGQGTLVTVSS VL: DIQMTQSPSSLSASVGDRVTITCRASQSILTYLNWYQQKPGKAPKLVIYYANNRPSGVPSRFSGSGSGTDFTLTISSLQPEDFATYYCQQSYSNPLTFGGGTKVEIK
2 | 3.35 | 3.59 | 3.5 | 376_F09 (antibody, V domains shown, Group II) VH: EVQLLESGGGLVQPGGSLRLSCAASGFTFDSYSMHWVRQAPGKGLEWVSSINYNGGYKSYADSVKGRFTISRDNSKNTLYLQMNSLRAEDTAVYYCARAATWHDTHLDYWGQGTLVTVSS VL: DIQMTQSPSSLSASVGDRVTITCRASQSILTYVNWYQQKPGKAPKLLIYAVTSRASGVPSRFSGSGSGTDFTLTISSLQPEDFATYYCQQSYDTPLTFGGGTKVEIK
3 | 3.1 | 3.06 | 2.79 | 375_H01 (antibody, V domains shown, Group I) VH: EVQLLESGGGLVQPGGSLRLSCAASGFTFSDYSMNWVRQAPGKGLEWVAGINYNSGYTSYADSVKGRFTISRDNSKNTLYLQMNSLRAEDTAVYYCARAANWHDTHLDYWGQGTLVTVSS VL: DIQMTQSPSSLSASVGDRVTITCRASQSILTYLNWYQQKPGKAPKLLIYAATSRHSGVPSRFSGSGSGTDFTLTISSLQPEDFATYYCQQSYSNPLTFGGGTKVEIK
4 | 3.15 | 3.16 | 3.11 | 375_H04 (antibody, V domains shown, Group II) VH: EVQLLESGGGLVQPGGSLRLSCAASGFTFSSYGMHWVRQAPGKGLEWVAGINYNSGYTGYADSVKGRFTISRDNSKNTLYLQMNSLRAEDTAVYYCARAATWHDTHLDYWGQGTLVTVSS VL: DIQMTQSPSSLSASVGDRVTITCRASQSILSYLNWYQQKPGKAPKLVIYAATSRASGVPSRFSGSGSGTDFTLTISSLQPEDFATYYCQQSYSNPLTFGGGTKVEIK
5 | 3.49 | 3.08 | 3.23 | 376_H12 (antibody, V domains shown, Group II) VH: EVQLLESGGGLVQPGGSLRLSCAASGFTFSDYGMHWVRQAPGKGLEWVASINYNGGYTSYADSVKGRFTISRDNSKNTLYLQMNSLRAEDTAVYYCARAATWHDTHLDYWGQGTLVTVSS VL: DIQMTQSPSSLSASVGDRVTITCRASQSIITYLNWYQQKPGKAPKLVIYAATSRASGVPSRFSGSGSGTDFTLTISSLQPEDFATYYCQQSYESPLTFGGGTKVEIK
6 | 3.55 | 3.7 | 3.69 | 376_G02 (antibody, V domains shown, Group I) VH: EVQLLESGGGLVQPGGSLRLSCAASGFTFSDYGMNWVRQAPGKGLEWVSGINYNGGYTSYADSVKGRFTISRDNSKNTLYLQMNSLRAEDTAVYYCARAANWHDTALDYWGQGTLVTVSS VL: DIQMTQSPSSLSASVGDRVTITCRASQSISRYLNWYQQKPGKAPKLVIYAATSLASGVPSRFSGSGSGTDFTLTISSLQPEDFATYYCQQSYDNPLTFGGGTKVEIK

Further lines, the binder ahead of its results:

Row | Binder | optical density [1] [OD] | optical density (mouse ACVR2A) [OD] | optical density (human ACVR2A) [OD]
7 | 375_F12 (antibody, V domains shown, Group I) VH: EVQLLESGGGLVQPGGSLRLSCAASGFTFDSYGMHWVRQAPGKGLEWVASINYNGGYTSYADSVKGRFTISRDNSKNTLYLQMNSLRAEDTAVYYCARAANWHDTALDYWGQGTLVTVSS VL: DIQMTQSPSSLSASVGDRVTITCRASQSILTYLNWYQQKPGKAPKLVIYAATSRASGVPSRFSGSGSGTDFTLTISSLQPEDFATYYCQQSDELPLTFGGGTKVEIK | 3.17 | 3.14 | 2.95
8 | 375_A11 (antibody, V domains shown, Group I) VH: EVQLLESGGGLVQPGGSLRLSCAASGFTFSDYGMHWVRQAPGKGLEWVSSINYNSGYKSYADSVKGRFTISRDNSKNTLYLQMNSLRAEDTAVYYCARAANWHDTALDYWGQGTLVTVSS VL: DIQMTQSPSSLSASVGDRVTITCRASQSIVSYLNWYQQKPGKAPKLLIYYVTNLASGVPSRFSGSGSGTDFTLTISSLQPEDFATYYCQQSYDNPLTFGGGTKVEIK | 3.05 | 3.7 | 3.73
9 | 365_E10 (antibody, V domains shown, Group III) VH: EVQLLESGGGLVQPGGSLRLSCAASGFTFDSYSMNWVRQAPGKGLEWVSSINYNSGYKGYADSVKGRFTISRDNSKNTLYLQMNSLRAEDTAVYYCARGANWHDTHLDYWGQGTLVTVSS VL: not shown | 3.34 | 2.05 | 1.82
10 | 365_B10 (antibody, V domains shown, Group I) VH: EVQLLESGGGLVQPGGSLRLSCAASGFTFDDYSMHWVRQAPGKGLEWVASINYNSGYKGYADSVKGRFTISRDNSKNTLYLQMNSLRAEDTAVYYCARAANWHDTALDYWGQGTLVTVSS VL: DIQMTQSPSSLSASVGDRVTITCRASQSILRYLNWYQQKPGKAPKLLIYAATSRASGVPSRFSGSGSGTDFTLTISSLQPEDFATYYCQQSDNLPLTFGGGTKVEIK | 3.21 | 2.78 | 2.82
11 | 371_D07 (antibody, V domains shown, Group I) VH: EVQLLESGGGLVQPGGSLRLSCAASGFTFDDYGMNWVRQAPGKGLEWVANINYNGGYKGYADSVKGRFTISRDNSKNTLYLQMNSLRAEDTAVYYCARAANWHDTHLDYWGQGTLVTVSS VL: DIQMTQSPSSLSASVGDRVTITCRASQSILTYLNWYQQKPGKAPKLVIYAATSRASGVPSRFSGSGSGTDFTLTISSLQPEDFATYYCQQSYELPLTFGGGTKVEIK | 3.59 | 2.9 | 2.66
12 | 366_A06 (antibody, V domains shown, Group III) VH: EVQLLESGGGLVQPGGSLRLSCAASGFTFSDYSMNWVRQAPGKGLEWVASINYNGGYKSYADSVKGRFTISRDNSKNTLYLQMNSLRAEDTAVYYCARGANWHDTHLDYWGQGTLVTVSS VL: not shown | 3.24 | 2.25 | 1.97
13 | 375_A04 (antibody, V domains shown, Group I) VH: EVQLLESGGGLVQPGGSLRLSCAASGFTFDSYGMNWVRQAPGKGLEWVAGINYNGGYKSYADSVKGRFTISRDNSKNTLYLQMNSLRAEDTAVYYCARAANWHDTALDYWGQGTLVTVSS VL: DIQMTQSPSSLSASVGDRVTITCRASQSILTYLNWYQQKPGKAPKLVIYYVNNLPSGVPSRFSGSGSGTDFTLTISSLQPEDFATYYCQQSYNSPLTFGGGTKVEIK | 3.1 | 3.73 | 3.72
14 | 375_G08 (antibody, V domains shown, Group II) VH: EVQLLESGGGLVQPGGSLRLSCAASGFTFSSYGMHWVRQAPGKGLEWVSGINYNGGYTSYADSVKGRFTISRDNSKNTLYLQMNSLRAEDTAVYYCARAATWHDTHLDYWGQGTLVTVSS VL: DIQMTQSPSSLSASVGDRVTITCRASQSISSYVNWYQQKPGKAPKLLIYAVTSRASGVPSRFSGSGSGTDFTLTISSLQPEDFATYYCQQSYSTPLTFGGGTKVEIK | 3.27 | 3.43 | 3.33
